According to article PMC11778176, “The IclR-family transcriptional regulator XyrR controls flotation, motility, antibiotic production and virulence in Serratia sp. ATCC 39006”:

Target: T1, IclR (XyrR, XynR homolog) (Serratia sp. ATCC 39006, UniProt A0A2I5T4I6 1-255)
T1 sequence: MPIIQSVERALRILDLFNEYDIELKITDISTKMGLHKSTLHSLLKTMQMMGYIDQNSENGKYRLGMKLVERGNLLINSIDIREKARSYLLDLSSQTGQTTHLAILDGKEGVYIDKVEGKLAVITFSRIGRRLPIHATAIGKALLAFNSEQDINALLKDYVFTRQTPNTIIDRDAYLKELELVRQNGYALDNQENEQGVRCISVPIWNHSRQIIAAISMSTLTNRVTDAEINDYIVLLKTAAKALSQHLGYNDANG
Assay: EMSA; complete shift at 0.8 uM IclR (stated protein:DNA 32:1; Methods state probe 5 nM); 10 mM Tris-HCl pH 8, 5 mM DTT, 50 mM KCl, 1 mM MgCl2, 10% glycerol, 0.1% Triton X-100, 30 min at 20 C; 5 nM probe
Settings: protein: recombinant; tags: 6xHis (pQE80); chain copies: 2; label: Cy5 on LUEGO strand (S13); three strands: S15 (long) pairs with S13 followed by S14; nick between S13 and S14; blunt

B1: yagE promoter LUEGO probe (dsDNA)
DNA 1: CACCACAAATTGCAGTGTTAGTATCATTTCGTTAATGTAGAACTTAGTTCTATAATATAAAACAAAATATCAATGAAGATCGACTGACACATATCGATTGTTGTGA
DNA 2: TCACAACAATCGATATGTGTCAGTCGATCTTCATTGATATTTTGTTTTATATTATAGAACTAAGTTCTACATTAACGAAATGATACTAACACTGCAATTTGTGGTGCCAGACCAGGGCAC
DNA 3: GTGCCCTGGTCTGG
- binding result: binds
